Bridge positions count the residues as written; N and C are the ends. * marks the point of attachment. tMeBn(DOTA-AET) = Cys-Cys bridge (thioethers) carrying DOTA-AET; tMeBn(DOTA-PP) = Cys-Cys bridge (thioethers) carrying DOTA-PP; Hexanoyl = CCCCCC(=O)*

What all share (test): radioligand displacement, 10 uM compound
What all share (settings): remark: other sources report otherwise
For orientation: In a radioligand displacement assay an active substance lowers the binding of a labelled ligand.

The target in assay [1] is 5-HT transporter (h) (human (printed (h))), P31645.
Assay [2] has as its target 5-HT2B (h) (human (printed (h))), P41595.
The target of assay [3] is CB2 (h) (human (printed (h))), P34972.
Assay [4] addresses T1, M1 (h) (human (printed (h))), P11229.
T1 chain: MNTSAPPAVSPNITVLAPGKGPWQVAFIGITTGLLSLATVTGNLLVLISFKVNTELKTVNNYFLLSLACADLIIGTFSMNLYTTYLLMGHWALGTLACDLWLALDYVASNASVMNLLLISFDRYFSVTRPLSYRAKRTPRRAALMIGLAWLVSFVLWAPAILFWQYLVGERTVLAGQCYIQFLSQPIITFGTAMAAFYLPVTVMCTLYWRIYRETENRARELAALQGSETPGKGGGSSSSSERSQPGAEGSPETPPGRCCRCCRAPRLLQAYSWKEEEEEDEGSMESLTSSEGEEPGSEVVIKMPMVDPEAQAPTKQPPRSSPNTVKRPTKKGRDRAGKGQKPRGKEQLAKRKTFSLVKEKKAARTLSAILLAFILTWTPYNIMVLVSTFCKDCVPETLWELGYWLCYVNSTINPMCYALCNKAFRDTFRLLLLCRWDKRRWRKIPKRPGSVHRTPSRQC

Assay [5] concerns the target T2, alpha 1A (h) (human (printed (h))), P35348.
T2 chain: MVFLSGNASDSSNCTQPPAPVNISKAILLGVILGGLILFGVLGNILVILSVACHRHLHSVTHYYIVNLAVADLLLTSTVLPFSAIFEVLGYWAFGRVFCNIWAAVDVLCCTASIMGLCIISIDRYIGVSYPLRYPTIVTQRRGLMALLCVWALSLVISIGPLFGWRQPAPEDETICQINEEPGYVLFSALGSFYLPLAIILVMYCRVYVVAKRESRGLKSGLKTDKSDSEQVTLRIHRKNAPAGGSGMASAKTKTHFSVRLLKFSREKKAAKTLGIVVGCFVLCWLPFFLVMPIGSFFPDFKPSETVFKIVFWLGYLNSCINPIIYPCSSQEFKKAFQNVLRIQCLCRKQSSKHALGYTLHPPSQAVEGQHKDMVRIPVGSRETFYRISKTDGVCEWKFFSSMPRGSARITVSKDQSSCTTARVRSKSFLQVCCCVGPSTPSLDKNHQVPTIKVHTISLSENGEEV

Assay [6] addresses T3, alpha 2A (h) (human (printed (h))), P08913.
T3 chain: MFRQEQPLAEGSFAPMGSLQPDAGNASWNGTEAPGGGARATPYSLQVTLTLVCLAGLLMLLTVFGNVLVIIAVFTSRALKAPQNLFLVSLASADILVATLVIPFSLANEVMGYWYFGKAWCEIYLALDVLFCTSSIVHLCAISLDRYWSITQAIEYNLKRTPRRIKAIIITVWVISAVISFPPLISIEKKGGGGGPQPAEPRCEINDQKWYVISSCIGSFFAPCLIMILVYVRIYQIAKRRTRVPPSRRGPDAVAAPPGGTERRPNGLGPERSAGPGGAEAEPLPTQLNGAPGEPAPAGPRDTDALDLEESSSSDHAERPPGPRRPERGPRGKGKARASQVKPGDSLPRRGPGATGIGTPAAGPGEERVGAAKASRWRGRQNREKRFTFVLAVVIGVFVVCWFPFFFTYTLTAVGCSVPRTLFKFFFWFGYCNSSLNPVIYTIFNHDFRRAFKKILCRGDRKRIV

The target in assay [7] is T4, delta (DOP) (h) (human), P41143.
T4 chain: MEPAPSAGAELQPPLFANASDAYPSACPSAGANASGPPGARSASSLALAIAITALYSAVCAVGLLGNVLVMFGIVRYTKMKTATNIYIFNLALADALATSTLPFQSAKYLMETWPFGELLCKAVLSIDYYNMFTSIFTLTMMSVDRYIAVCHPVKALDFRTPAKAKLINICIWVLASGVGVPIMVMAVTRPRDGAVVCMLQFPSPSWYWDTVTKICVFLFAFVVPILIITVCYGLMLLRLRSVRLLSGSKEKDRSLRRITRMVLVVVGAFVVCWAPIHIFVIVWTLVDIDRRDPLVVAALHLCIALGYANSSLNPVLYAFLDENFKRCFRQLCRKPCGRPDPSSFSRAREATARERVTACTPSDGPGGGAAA

Assay [8] has as its target T5, dopamine transporter (h) (human (printed (h))), Q01959.
T5 chain: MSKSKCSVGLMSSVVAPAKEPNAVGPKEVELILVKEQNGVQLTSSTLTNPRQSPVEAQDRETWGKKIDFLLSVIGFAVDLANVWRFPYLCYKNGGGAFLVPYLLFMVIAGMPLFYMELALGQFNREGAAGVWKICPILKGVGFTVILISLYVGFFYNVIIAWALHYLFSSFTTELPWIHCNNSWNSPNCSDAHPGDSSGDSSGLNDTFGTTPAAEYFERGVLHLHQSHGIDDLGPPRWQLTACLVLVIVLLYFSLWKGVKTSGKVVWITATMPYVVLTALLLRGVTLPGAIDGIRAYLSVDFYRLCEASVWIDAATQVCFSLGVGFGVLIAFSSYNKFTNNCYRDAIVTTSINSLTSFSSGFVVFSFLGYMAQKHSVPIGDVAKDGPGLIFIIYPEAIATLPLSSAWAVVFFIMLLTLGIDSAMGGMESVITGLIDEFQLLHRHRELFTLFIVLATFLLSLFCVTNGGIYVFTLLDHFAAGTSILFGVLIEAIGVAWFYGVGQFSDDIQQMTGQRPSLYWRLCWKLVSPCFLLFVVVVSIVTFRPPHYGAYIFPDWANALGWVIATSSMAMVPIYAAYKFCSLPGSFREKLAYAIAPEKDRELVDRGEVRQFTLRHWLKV

The target of assay [9] is mu (MOP) (h) (human), P35372.
Assay [10] addresses norepinephrine transporter (h) (human (printed (h))), P23975.

Sequence of norepinephrine transporter (h) (human (printed (h))), P23975 (P23975 whole entry): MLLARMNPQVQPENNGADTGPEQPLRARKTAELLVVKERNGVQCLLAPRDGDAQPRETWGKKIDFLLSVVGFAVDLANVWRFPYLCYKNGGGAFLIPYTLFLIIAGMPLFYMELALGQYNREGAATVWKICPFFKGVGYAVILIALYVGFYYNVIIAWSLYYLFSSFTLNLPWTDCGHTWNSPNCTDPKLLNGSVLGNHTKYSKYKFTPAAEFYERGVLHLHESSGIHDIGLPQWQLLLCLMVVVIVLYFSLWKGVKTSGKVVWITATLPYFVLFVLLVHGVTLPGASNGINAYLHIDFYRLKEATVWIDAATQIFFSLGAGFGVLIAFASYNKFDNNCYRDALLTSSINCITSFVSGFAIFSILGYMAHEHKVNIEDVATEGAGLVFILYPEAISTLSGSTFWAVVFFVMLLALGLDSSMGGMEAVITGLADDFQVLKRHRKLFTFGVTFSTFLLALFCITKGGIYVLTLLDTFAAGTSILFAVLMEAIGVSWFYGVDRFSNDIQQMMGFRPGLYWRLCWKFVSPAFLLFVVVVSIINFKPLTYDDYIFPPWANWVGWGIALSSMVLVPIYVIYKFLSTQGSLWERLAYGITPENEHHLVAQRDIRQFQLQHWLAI
Sequence of CB2 (h) (human (printed (h))), P34972 (P34972 whole entry): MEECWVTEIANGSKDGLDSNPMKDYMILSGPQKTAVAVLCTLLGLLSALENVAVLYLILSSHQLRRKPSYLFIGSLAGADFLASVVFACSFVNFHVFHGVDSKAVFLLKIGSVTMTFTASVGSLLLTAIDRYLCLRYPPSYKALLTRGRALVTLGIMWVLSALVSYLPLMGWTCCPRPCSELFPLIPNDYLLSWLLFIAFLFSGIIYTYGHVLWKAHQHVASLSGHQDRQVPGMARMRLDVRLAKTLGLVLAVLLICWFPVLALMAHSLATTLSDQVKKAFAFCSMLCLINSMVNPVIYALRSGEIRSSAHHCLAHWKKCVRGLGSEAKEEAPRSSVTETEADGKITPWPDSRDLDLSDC
Sequence of mu (MOP) (h) (human), P35372 (P35372 whole entry): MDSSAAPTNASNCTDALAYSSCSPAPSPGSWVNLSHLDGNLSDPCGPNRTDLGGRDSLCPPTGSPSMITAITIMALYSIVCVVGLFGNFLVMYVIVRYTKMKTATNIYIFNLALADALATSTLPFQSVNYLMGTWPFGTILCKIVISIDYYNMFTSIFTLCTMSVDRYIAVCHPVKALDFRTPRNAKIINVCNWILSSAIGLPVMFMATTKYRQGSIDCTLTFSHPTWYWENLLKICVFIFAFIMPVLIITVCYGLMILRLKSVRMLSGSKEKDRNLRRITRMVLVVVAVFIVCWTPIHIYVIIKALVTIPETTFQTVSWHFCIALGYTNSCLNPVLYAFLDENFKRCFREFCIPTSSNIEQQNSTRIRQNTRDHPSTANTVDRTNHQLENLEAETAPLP

B1: Hex-[Cys(tMeBn(DOTA-AET))-Pro-Pro-Thr-Gln-Phe-Cys]-OH (3BP-3554) (peptide)
peptide: Hexanoyl-CPPTQFC-OH
modifications: linker 1-7 via tMeBn(DOTA-AET)
Take B1: the % Inhibition of Specific Binding in assay [1] was -8%; in assay [2] it was 3%; in assay [3], -5%; in [4], 8%; in assay [5], -12%; in [6] it was 2%. The % Inhibition of Specific Binding was 1% in assay [7], 7% in assay [8], -10% in assay [9] and -5% in assay [10].

B2: Hex-[Cys(tMeBn(DOTA-PP))-Pro-Pro-Thr-Gln-Phe-Cys]-Asp-NH2 (3BP-3407) (peptide)
peptide: Hexanoyl-CPPTQFCD-NH2
modifications: linker 1-7 via tMeBn(DOTA-PP)
As to B2, the % Inhibition of Specific Binding in [1] is -3%; in assay [2] it was 2%; in assay [3], 2%; in [4], 6%; in [5] it was 2%; in assay [6] it was -9%. The % Inhibition of Specific Binding in assay [7] was 0%; in assay [8], 12%; in assay [9], 2%; in assay [10] it was -8%.

Source of the values: patent US20220315554A1, “COMPOUNDS COMPRISING A […] LIGAND AND USE THEREOF” (priority 2019, published 2022).
